The nanobody polyreactivity screen of Harvey et al. (2022)

Assay: yeast display, Sf9 membrane polyspecificity reagent, FACS + sequencing; frameworks hold sequencing errors
Outline: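 Nanobodies from a synthetic yeast display library (Saccharomyces cerevisiae BJ5465), induced 36–48 hours with galactose, were stained 1 hour at 4 °C with 10% biotinylated, detergent-solubilized Sf9 membrane reagent, enriched on streptavidin microbeads, then FACS-sorted. Anti-HA (expression) and streptavidin (reagent binding) fluorescence set low and high (top ~1%) gates. Polyreactivity labels come from the gate of origin. Genes were colony-PCR amplified, MiSeq 2 × 250 sequenced and filtered by CDR length.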

Row | Sequence | polyreactivity (PSR sort gate)
1 | QVQLVESGGGLVQAGGSLRLSCAASGIIFDDNTMGWYRQAPGKERELVAAISSGGRTYYADSVKGRFTISRDNAKYTVYLQMNSLKPEDTAVYYFNVDIYTYIASNGELDYWGQGTQVTVSS | low polyreactivity
2 | QDHLVESGGGLVQAGGSLRLSCAASGSIFGLNVMGWYRHAPGKERELVASITSGRSTNYADSVKVRFTISRDNAKNTVYLQMNSLKPVVTAVYYCYATRVRGWYVTRYYYWGQGTQVTVSA | high polyreactivity
3 | QVQLVESGGGLVQAGGSLRLSCAASGRTFDGYDMGSYRQAPGKERELVAAINVVGGSTYYADSVKGRFTISRDNAKNTVYLLMNSLKPEDTEVYYCAARRSYLTNFRRYYKMDYWGQGTQVTVAS | low polyreactivity
4 | QVQLVESGGGLVQAGGSLRLSCAASGSTCGTYAMGWYRQAPGKERELVATISLSGGSTYYADSVKGRFTISRDNAKNTVYLQMNSLKPEDTAVYYCTVKSSYSEYDYWGQGTQVTVSS | low polyreactivity
5 | QVQLVESGGGLVQAGGSLRLSCAASGITYGYYAMGWYRQAPGKERELVATITDGGGTKYADSVKGRFTISRDNAKNTVYLQMNSLKPEDTAVYYCAAGLRHVYATEYDYWGQGTQVTVSS | low polyreactivity
6 | QVQLVESGGGLVQAGGSLRLTCAASGSIFPFYAKGWYRQATGKERELVAAISDSGGDTYYADSVKGRFTISRDNAKNTVYLQMNSLKPEDTAVYYCAADCFYNSFNYWGQGTQVTVSS | low polyreactivity
7 | QVQLVESGGGLVQAGGSLRLSCAASGSTFSWYAMGWYRQAPGKERELVAAISYSGGTYYADSVKGRFTISRDNAKNTVYLQMNSLKPEDTAVYYCAALRTRYGYDYWGQGTQVTVSS | high polyreactivity
8 | QVQLVESGGGIVQAGGSLRLSCAASGGIFYGYAMGWYRQAPGKERELVAAISSTGGRTYYADSVKGRFTISRDNAKNTVYLQMNSLKPEDTAVYYCAAEDFTRQFEYWGQGTQVTVSS | low polyreactivity
9 | QVQLVESGGGLVQAGGSLRLSCAASGLTITQYVMGWYRQAPGKERDLDAAISWGGTSTYYADSVKGRFTISRDHAKNTVYLQMNSLKPEDTAVYYCNARSVYLSFWGFDYWGQGTQVTVSS | low polyreactivity
10 | QVQLVESGGGLVQAGCSLRLSCAASGFIFATNTMGWYRHSPGKERELVAASSTYYAESVKGRFTISRDNAKNTVYLQMNSLKQEDTAVYYCNAYRDSYIGFVDWAGEYWGQGTQVTVSS | low polyreactivity
11 | QVQLVESGGGLVQAGGSLRLSCAASGSTFPYNAMGWYRQAPGKERELVAAITSAGGTNYADSVKGRFTISRDNAKNTVYLQMNSLKPEDTAVYYCAADGSGYYDWYYYWGQGTQVTVSS | low polyreactivity
12 | QVQLVESGGGLVQAGGSLRLSCAASGIIFDGNAMGWYRQAPGKERELVAAISSRGSRTYYADSVKGRFTISRDNAKNTVYLQMNSLKPEDTAVYSCNAGYVFRSYGYDPWGQGTQVTVSS | high polyreactivity
13 | QVQLVESGGGLVQAGGSPRLSCAASGRTFAEYPMGWYRQAPGKERELVAGISWSGGSTYYADSVKGRFTISRDTAKNTVYLQMNSMKPDDTAVYYCAARGWKRGYYIGHYYYWGQGTQVTVSS | low polyreactivity
14 | QVQLVESGGGLVQAGGSLRLSCAASGRIFPFYVMGWYRQAPGKERELVATINWSGGSTYYADSVKGRFTISRDNAKNTVYLQMNSLKPEDSAVYYCNAAPSEDYDYWGQGTQVTVSS | low polyreactivity
15 | QVQLVESGGGLVQAGGSLRLSCAASGSTFVRYAMGWYRQAPGKERELVAAITWSGGITYYADSVKGRFTISRDNAKNTVYLQMNSLKPEDTAVYYCNAEQKQYEKSYDYWGQGTQVTVSS | low polyreactivity
16 | QVQLVESGGGLVQAGGSLRLSCAASGRTFGSYAMGWYRQAPGKERELVAAISKGGGSTYYADSVKGRFTISRDNAKNTVYLQMNSLKPEDTAVYYCAKRRFDYYYYGGQGTQVTVSS | high polyreactivity
17 | QVQLEESGGGFVQAGGSLRLSCAPSGTTFKSNAMGWYRQAPGKERELVAAINSGTSTYYADSVKGRFTISRDNAKNTVYLQMNSLKPEDTAVYYCSADGIWGEYYYSELGDYDYWGLGTQVTVSS | low polyreactivity
18 | QVQLVESGGGLVQAGGSLRLSCAASGSIFSKYAMGWYRPAPGKERELVAAIASSGGSTYYADSVKGRFTISRDNAKNTVYFQMNSLKPEDTAVYYCAAGGRSVRYNYWGQGTQVTVSS | high polyreactivity
19 | QVQLVESGGGLVQAGGSLRLSCAASGFIFGSYTMGGYRQAPGTERELVAVITCSGSSTYYADSVKGRFTISRDNAKNTVYLQMNSLKPADTAVYYCNAVKFGGYDYWGQGTQVTVSS | high polyreactivity
20 | QVQLVESVGGLVQAGGSLRLSCAATGRTFAWYALGWYRQAPGKERELVAAISSGGSTYYADSVKGRFTISRDNAKNTVYLQMNSLKPEDTAVYYCAAEWHYIYAYDYWGQGTQVTVSS | low polyreactivity
21 | QVQLVESGGGVVQAGGSLRLSCAASGSIFPYNAMGWYRPAPGKERELVAVITSSGGSTYYADSVKGRFTISRDNAKNTVYLQMNSLKPEDTAVYYVAARGYNYYFGGYDYWGQGTQVTVSS | low polyreactivity
22 | QLQLVESGGGLVQAGGSLSLSCAASGSIFNSKRMGWYRPAPGKERELVAAITGGGSTNYADSVKGRFTISRDNAKNTVYLQMNSLKPEDTAVYYCAADYPPTFYYWYEEYEYWGQGTQVTVSS | low polyreactivity

Row | Sequence | polyreactivity (PSR sort gate)
23 | QVQLVESGGGLVQAGGSLRLSCAASGFIFSGNAMGWYRQAPGKARELVAAISWSGTSTFYADSVKGRFTISRDNAKNTVYLQMHSLIPEDTAVYYCAAETYYSYWYRPHYDYWGQGTQVTVSS | low polyreactivity
24 | QVQLVESGGGLVQAGGSLRLSCAASGSISSKNAMGWYRQAPGKEREFGAVISGTGGSTYYADSVKGRFTISRDNAKNTVYLQMNSLKPEDTAVYYCAAAASSIVSYGYTWTYGYWGQGTQVTVSS | low polyreactivity
25 | QVQLVESGGGLVQSGGSLRLSCAASGIIFQYYAMGWYRQAPGKEMELVAAITSSGGSTFYADSVKGSFTISRDNAKNTVYLQMNSLKPEDTAVYYCAAVYHRSTYDYWGQGTQVNVSS | high polyreactivity
26 | QVQLVESGGGLVQAGGSLRLSCAASGSNKQNAMGWYRQSPGKERELLARISKYGGSTYADSVKGRFTISRDNAKNTVYLQMNSLKPEDTAVYYCNAVKRDRNHHATKCEYAYWGQGTPVTVSS | low polyreactivity
27 | QVQLVESGGGLVQAGGSLRLSCAASGRTFVYYAKGWYIQAPGKERELVATISSSDSTNYAYSVKGRFTISRDNAKNTVYLQMNSLKPEDTAVYYCAGGPKGGGYYDPFDYWGQGTQVNVSS | low polyreactivity
28 | QVQLVESGGGLVQAGGSLRLSCASSGRIFQYYVKGWYRQAPGKERELVAAITSGGGTKYADSVKGRFTISRDNENNTVYLQMNSLKPEDTAVYYCAAAWFDQYSRYDYWGQGTQVTVSS | low polyreactivity
29 | QVQLVESGGGLVQAGGSLRLSCAASGRTFGYNAMGWYREAPGKERELVPAITTSGGSTYYADSVKGRFTISRDNAKNSVYLQMNSRKPEDTAVYYCAADYSFFYRYTWLVYIFDYDYWGQGTQVTVSS | low polyreactivity
30 | QVQLVESGGGLVQAGGSLRLSCAASGYTFRSYAMGWYRQAPGKEREFVASISSSGGSTYYADSVKGRFTISRDNAKNTVYLQMNSLKPEDTAVYYCAASVGSYPYDEYDYWGQGTQVTVSS | low polyreactivity
31 | QVQLVESGGGLVQAGGSLRLSCAASGFTFQSNAMGWYRQAPGKERELVATISLTGGSTYYADSVKGRFTISRDNAKNTVYLQMNSLKPEDTAVYYCNAVRYASPYGYWGQGTQVTVSS | high polyreactivity
32 | QVQLVESGGGLVQAGGSLSLSCAASVSTSLSYDMGWYRQAPGKERELVASITSSGGSTYYADSVKGRFTIARDNAKNTVYLQMKSLKPEDTAVYYCNARSYIYPFSPTSYYRYYWGQGTQVTVSS | high polyreactivity
33 | QVQLVESGGGLVQAGGSLRLSCAASGLTFWWYAMGWYRQAPGKQRELVAGITGGGSTSYADSVKGRFTISRDNAKNTVYLQMNSLKPEDTAVYYCAASPYNGQRTWYKYFFLGDYWGQGTQVTVSS | high polyreactivity
34 | QVQHVDSGGGLVQAGGSLRLSCAASGFIFAYNIMGWYRQAPGKERELVADISGTGSTNYADSVKGRFTISRDNAKNTVYLQMNSLKPEDTAVYYCATSGDRLVWGQGTLVTVSS | low polyreactivity
35 | QVQLVESGGGLVQAGGSLRLSCAASGRTFFRNVMGWYRQAPGKERELVAGITWTGGTTYYADSVKGRFTISRDNAKNTVYLQMNSLKPEDTAVYYCATRNYAVVPSVRREGYYWGQGTQVTVSS | low polyreactivity
36 | QVQIVESGGGLVQAGGSLRLSCAAYGSIFRLYAMGWYRQAPGKERDFVARIRWRGGSTNYPDSVKASFTISRDNAKNTVFVQMNSQKTVDTAVYYCAAKQGTVRAHTFVPWYDYWGQGTQVSVSS | high polyreactivity
37 | QVQLVESGRGLVQAGGSLRLSCAASGSTFQVYTMGWYRQAPGKEREFVASISWSGSSTYYADSVKGRFTISRDNAKNTVYLQMNSLKPEDTAVYYCAARVGSTYRRYYYWGQGTQVTVSS | high polyreactivity
38 | QVQLVESGGGLVQAGGSLRLTCAASGSIFWGNAMGWYRQAPGKERELVATISWSAGSTYYADSVKGRFTISRDNAKNTVYLQMNSLKPEDTGVYYCATDFRHSTLYYYWGQRTQVTVSS | low polyreactivity
39 | QVQLVESGGGLVQAGGSLRLSCAASGRTLYGYAMGWYRQAPGKERELVAAISESDGSTYADSVKGRFTISRDNAKNTVYLQMNSLKPEDTAVYYCAADYYWYALQDGYYTYGYTYDYWGQGTQVTVSS | low polyreactivity
40 | QVQLVESGGGLVQAGGSLRLSCAASGIIFITYAMGWYRQAPGKERELVAAITNSGGGTYYADSVKGRFTISRDNAKNTVDLQMTSLKPEDTAVYYCAARKTAYGYRYDYWGQGTQVTVSS | high polyreactivity
41 | QVQLVESGGGLVQAGGSLRLSCAASGRTFEGNAMGWYRQAPGKERELVAAITSGGRTNYADSVKGRFTISRDNAKNTVYLQMNSLKPEDTAVYYCAAGQVSVGTIAKYDYWGQGTQVTVSS | low polyreactivity
42 | QVQLVESGGGLVQAGGSLRLSCDASGSTFNKYAMGWYRQAPGKERELVAAITTSGGRTTYADSVKGRFTISRDNAKNTVYVQMNSLKPEDTEVYYCAARYYIHRGYDYDYWGQGTQVSVSS | high polyreactivity
43 | QVQLVESGGGLVQAGGSLRLSCAASGFTFIRNAMGWYRQAPGKERELVAAISRSGGSTYYADSVKGRFTISRDNAKKTVYLQMNSQKPEDTAVYYCAVTLYLKWQGGAYDYWGQGTQVTVSS | low polyreactivity
